Legend:
[1] = test system: K4 kissing-loop RNA reporter; assay: apparent KD of K4 kissing-loop reporter; higher = weaker reporter binding; settings: Eterna round: R107;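 further: bound reporter read as fluorescence of individual clusters on recovered sequencing chips by microscopy, with normalized cluster intensities fitted with a binding model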
Protocol: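 RNA-MaP round R107: designed RNA switches with theophylline, tryptophan, arginine or FMN aptamers are transcribed on-chip within common flanks. They are titrated with a labelled K4 kissing-loop RNA reporter in RNA-MaP buffer (100 mM Tris pH 7.5, 80 mM KCl, 4 mM MgCl2), without ligand or with the indicated ligand. Median apparent KD per design.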

[2] = test system: MS2 coat protein; assay: apparent KD of MS2 coat protein; designed switch direction (-1 OFF switch, 1 ON switch): -1; higher = weaker reporter binding
In short: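 For each design, the apparent KD is the median over clusters of curves fitted to normalised cluster fluorescence. Clusters held RNA switches with common flanks, transcribed on Illumina chips by stalled E. coli RNA polymerase. These were titrated with SNAP-549-labelled MS2 coat protein, doubling from 0.7 or 1.5 nM to 3 µM, without input, with 200 uM small-molecule ligand, or with an oligonucleotide input.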

[3] = input ligand: theophylline 20 uM
[4] = input ligand: tryptophan 2.4 mM
[5] = Eterna round: R95, input ligand: microRNA oligo, concentration not stated
[6] = Eterna round: R95, input ligand: FMN 200 uM
[7] = Eterna round: R95, input ligand: none
[8] = input ligand: microRNA oligo, concentration not stated

AAAUGACAAGUAAUAAAGAAAAGCGGCGAUACCAGUAAGAACGUAUACCCUUGGCAGCGCAUAUUAGAGUGAUGUUCUAAUCCGA [theeternabot_sameState_KL_Theo_A_25]
apparent KD of K4 kissing-loop reporter ([1]; input ligand: FMN 200 uM): 129 nM | apparent KD of K4 kissing-loop reporter ([1]; input ligand: arginine 13.2 mM): 174 nM | apparent KD of K4 kissing-loop reporter ([1]; input ligand: none): 148 nM | apparent KD of K4 kissing-loop reporter [1, 3]: 220 nM | apparent KD of K4 kissing-loop reporter [1, 4]: 99.3 nM

GGGAUGUAGUGAUGUUAUAUUAGAUGUAGACGAGGACCGGUACGGCCGCCACUCGUGAUGGCUGCUAGCACGUUUCGAUGUUUGC [ExTryptoA.Cr]
apparent KD of K4 kissing-loop reporter ([1]; input ligand: FMN 200 uM): 399 nM | apparent KD of K4 kissing-loop reporter ([1]; input ligand: arginine 13.2 mM): 426 nM | apparent KD of K4 kissing-loop reporter ([1]; input ligand: none): 428 nM | apparent KD of K4 kissing-loop reporter [1, 3]: 462 nM | apparent KD of K4 kissing-loop reporter [1, 4]: 309 nM

CGUGCCCAGCCGGAUACCAGUGACCCGCUGGGAACCGCGGGCCCAGAGUGAUGUUCGGGACACCCUUGGCAGCCGCCUGGGCGGU [#2 Same State - Theophylline B Attempt #11 (HarryS)]
apparent KD of K4 kissing-loop reporter ([1]; input ligand: FMN 200 uM): 1170 nM | apparent KD of K4 kissing-loop reporter ([1]; input ligand: arginine 13.2 mM): 343 nM | apparent KD of K4 kissing-loop reporter ([1]; input ligand: none): 584 nM | apparent KD of K4 kissing-loop reporter [1, 3]: 1190 nM | apparent KD of K4 kissing-loop reporter [1, 4]: 791 nM

UCCUAGACUUAGCUAGGUAUAUAAUACGAUACCAGUCUAGAGAUAGACCCUUGGCAGCGUAGGCAGUGAUGUUGCCACUAGCUGA [Theo B SS t7a]
apparent KD of K4 kissing-loop reporter ([1]; input ligand: FMN 200 uM): 97.6 nM | apparent KD of K4 kissing-loop reporter ([1]; input ligand: arginine 13.2 mM): 110 nM | apparent KD of K4 kissing-loop reporter ([1]; input ligand: none): 103 nM | apparent KD of K4 kissing-loop reporter [1, 3]: 111 nM | apparent KD of K4 kissing-loop reporter [1, 4]: 101 nM

AAAGUGUCAGCACGAGUGAUGUUCGACGAUACCAGCCUCGAUAGAGGCCCUUGGCAGCGUAAACCAAGGGCUGGCACAAAAUAAA [#SwitchBubble 6 #K4Early]
apparent KD of K4 kissing-loop reporter ([1]; input ligand: FMN 200 uM): 1050 nM | apparent KD of K4 kissing-loop reporter ([1]; input ligand: arginine 13.2 mM): 975 nM | apparent KD of K4 kissing-loop reporter ([1]; input ligand: none): 1350 nM | apparent KD of K4 kissing-loop reporter [1, 3]: 439 nM | apparent KD of K4 kissing-loop reporter [1, 4]: 1360 nM

GCAAAGUGUCAUAUUAUCUAGCAGCUGCGAAAGGAUAUGAGAGUGCUCAGAAGGUUCUUGGCGGAGUGAUGUUCCGCGUAAAUGG [theeternabot_exclusion_KL_FMN_A_22]
apparent KD of K4 kissing-loop reporter ([1]; input ligand: FMN 200 uM): 84.2 nM | apparent KD of K4 kissing-loop reporter ([1]; input ligand: arginine 13.2 mM): 93.8 nM | apparent KD of K4 kissing-loop reporter ([1]; input ligand: none): 93.9 nM | apparent KD of K4 kissing-loop reporter [1, 3]: 103 nM | apparent KD of K4 kissing-loop reporter [1, 4]: 81.4 nM

CCAUGUUAGCAGGAUAUGCAAUAAAUCUUUUAAGCAGAAGGGCUUACAUGAGGAUCACCCAUGUAUAAAGUCAA [JR_E6_Sub079] (puzzle: Exclusion 6)
apparent KD of MS2 coat protein [2, 5]: 19.9 nM

GCAGGAUAAGUGAGGAUAUACCUAUGGAUACAUAGGUAGAAGGCACAUGAGGAUCACCCAUGUUCCUAACCUGC [Fiskers BMX 4 - 68] (puzzle: Brourd's mod of Exclusion 4)
apparent KD of MS2 coat protein [2, 6]: 70.9 nM | apparent KD of MS2 coat protein [2, 5]: 12.8 nM | apparent KD of MS2 coat protein [2, 7]: 15.1 nM

AAGGCGCGCGUAGGAUAUCACCGCAAAAGUCGAUGAGAAGGGCGAGUGCAUGGUGUCCUAACUUGAGGAUCACCCAAGUAAAGA [Mutated MS2 EX1.22] (Eterna round: R96, puzzle: Exclusion NG 1)
apparent KD of MS2 coat protein ([2]; input ligand: FMN 200 uM): 67.9 nM | apparent KD of MS2 coat protein [2, 8]: 41.5 nM | apparent KD of MS2 coat protein ([2]; input ligand: none): 56.5 nM

AAACCUAUAGGAUAUACAUGAGGAUCACCCAUGUUGCGAUUUUUUAGGUAACAGAUCCGUAGAAGGGUAGGGCA [Retebi] (puzzle: Exclusion 3)
apparent KD of MS2 coat protein [2, 5]: 28.3 nM

UUUUAUAGAGGAUAUGCGUGAAUAUAUAUUCAUGGAAAUUUACAUGAGGAUCACCCAUGUAGAAGGUUGUGUUU [LRO-Excl2-20-mod 090 by JR] (Eterna round: R97, puzzle: Exclusion 2)
apparent KD of MS2 coat protein ([2]; input ligand: FMN 200 uM): 13.3 nM | apparent KD of MS2 coat protein ([2]; input ligand: none): 11.9 nM

UAUUUAUAGCAAGGAUAUGAUUAUUAUUAUUUAUCAGAAGGUGCACAUGAGGAUCACCCAUGUUUUAUAUAUAAUAAUUUAAUU [Title] (Eterna round: R96, puzzle: Exclusion NG 1)
apparent KD of MS2 coat protein [2, 8]: 82.5 nM

AAUGCAAGCAAGAUCCUAAACAUGAGGAUCACCCAUGUGCUCGUCUUAUAAAGUACUAUCACGAAAGUGAUAGUACA [Sensor 3, v1 - 64] (puzzle: Sensor v3, turn-off variant 1)
apparent KD of MS2 coat protein [2, 6]: 515 nM | apparent KD of MS2 coat protein [2, 5]: 132 nM | apparent KD of MS2 coat protein [2, 7]: 744 nM

GGUCAAGAACAGCUCCGCGCUGCCCUUGACCGCUCAUUUACAUGAGGAUCACCCAUGUUUUUUGCUUGUCUUGUUUC [Bebiesgebe] (puzzle: Sensor v3, turn-off variant 2)
apparent KD of MS2 coat protein [2, 6]: 20 nM | apparent KD of MS2 coat protein [2, 5]: 127 nM | apparent KD of MS2 coat protein [2, 7]: 22.6 nM

UUUUAAUAUGAAGGAUAUACUUAACAUGAGGAUCACCCAUGUGGUGUUGUGAGUGAGUGAGUUUAGUAGAAGGUCAAUGAUUUU [JMF's solution 69] (Eterna round: R96, puzzle: Exclusion NG 2)
apparent KD of MS2 coat protein ([2]; input ligand: FMN 200 uM): 638 nM | apparent KD of MS2 coat protein [2, 8]: 381 nM | apparent KD of MS2 coat protein ([2]; input ligand: none): 252 nM

CAGUACUGAGGAUAUACAUGAGGAUCACCCAUGUGUUCCAGCUAGGAAACUAGCAAAAGUAGAAGGUAGUACUG [salish99_ex3_r3_086 (!)] (puzzle: Exclusion 3)
apparent KD of MS2 coat protein [2, 5]: 14.7 nM

GCAGAAUGAGUUAGGAUAUGAUGAUUUUUCGGAUAUCAGAAGGAACUUGAGGAUCACCCAAGUUAAGAUAGGGU [JR_BMEx4_Sub066] (Eterna round: R97, puzzle: Brourd's mod of Exclusion 4)
apparent KD of MS2 coat protein ([2]; input ligand: FMN 200 uM): 258 nM | apparent KD of MS2 coat protein ([2]; input ligand: none): 170 nM

UAAUAGCAAGCAAGAUCCCACAUGAGGAUCACCCAUGUGCUCGUCUUAUAAGGUACUGUGACGAAAGUCACGGUACC [Sensor 3, v1 - 98] (puzzle: Sensor v3, turn-off variant 1)
apparent KD of MS2 coat protein [2, 6]: 45.5 nM | apparent KD of MS2 coat protein [2, 5]: 535 nM | apparent KD of MS2 coat protein [2, 7]: 47.5 nM

UUUCGGCGGACCGUGGCUUUUUGCUCGUCUUAUGCUACGACAUGAGGAUCACCCAUGUGGUGGUGGUCCGUUGUUGU [Grok-var2-11 mod JAL] (puzzle: Sensor v3, turn-off variant 2)
apparent KD of MS2 coat protein [2, 6]: 59.7 nM | apparent KD of MS2 coat protein [2, 5]: 10.4 nM | apparent KD of MS2 coat protein [2, 7]: 39.7 nM

CGCGUAUGAGGAUAUGCAUAAAAGGGUGCACUGAGUCUGAGACAUGAGGAUCACCCAUGUAGAAGGCGUGCGCU [Beerteon] (puzzle: Exclusion 2)
apparent KD of MS2 coat protein [2, 5]: 13.6 nM

AGUAACUAUCACGAAAGUGAUAGUUACACAAGCAGUGAAACAUGAGGAUCACCCAUGUCCUCAUAUGCUCGUCUUAU [Sensor 3 - 30] (puzzle: Sensor v3, turn-off variant 2)
apparent KD of MS2 coat protein [2, 6]: 119 nM | apparent KD of MS2 coat protein [2, 5]: 1280 nM | apparent KD of MS2 coat protein [2, 7]: 114 nM

CACACCUCCGUCAGGAUAUUAAGGCACCGCCGCCAUGAGAAGGGACAUGAGGAUCACCCAUGUUAAUCGUGGAA [Betibier] (Eterna round: R97, puzzle: Brourd's mod of Exclusion 4)
apparent KD of MS2 coat protein ([2]; input ligand: FMN 200 uM): 226 nM | apparent KD of MS2 coat protein ([2]; input ligand: none): 20.5 nM

AGGAAGCAAGGAUAUACGAGGAGAAGGUGUCCAUCUAAAUGACAUGAGGAUCACCCAUGUAGAAGGUGCGAGAA [JR_Exclu2_Sub050] (puzzle: Exclusion 2)
apparent KD of MS2 coat protein [2, 6]: 112 nM | apparent KD of MS2 coat protein [2, 5]: 47.4 nM | apparent KD of MS2 coat protein [2, 7]: 34.5 nM

Reference: the supplement of paper PMC9170038
